Results on eleven molecules are retold here after patent US20160046684A1, “Methods and compositions for treatment of PTP1B-related diseases” (BROWN UNIVERSITY, priority 2014, published 2016).

To fix the notation:
B1: PTP1BY153F: PTP1B1-301 mutant with mutation in the L11 loop (protein, UniProt P18031 1-301, looked up, variant Y153F)
chain: MEMEKEFEQIDKSGSWAAIYQDIRHEASDFPCRVAKLPKNKNRNRYRDVSPFDHSRIKLHQEDNDYINASLIKMEEAQRSYILTQGPLPNTCGHFWEMVWEQKSRGVVMLNRVMEKGSLKCAQYWPQKEEKEMIFEDTNLKLTLISEDIKSYFTVRQLELENLTTQETREILHFHYTTWPDFGVPESPASFLNFLFKVRESGSLSPEHGPVVVHCSAGIGRSGTFCLADTCLLLMDKRKDPSSVDIKKVLLEMRKFRMGLIQTADQLRFSYLAVIEGAKFIMGDSSVQDQWKELSHEDLEP
B2: PTP1BK292A: PTP1B1-301 mutant with point mutation in the α7 helix (protein, UniProt P18031 1-301, looked up, variant K292A)
chain: MEMEKEFEQIDKSGSWAAIYQDIRHEASDFPCRVAKLPKNKNRNRYRDVSPFDHSRIKLHQEDNDYINASLIKMEEAQRSYILTQGPLPNTCGHFWEMVWEQKSRGVVMLNRVMEKGSLKCAQYWPQKEEKEMIFEDTNLKLTLISEDIKSYYTVRQLELENLTTQETREILHFHYTTWPDFGVPESPASFLNFLFKVRESGSLSPEHGPVVVHCSAGIGRSGTFCLADTCLLLMDKRKDPSSVDIKKVLLEMRKFRMGLIQTADQLRFSYLAVIEGAKFIMGDSSVQDQWAELSHEDLEP
B3: PTP1BS190A: PTP1B1-301 mutant with mutation in the α3 helix (protein, UniProt P18031 1-301, looked up, variant S190A)
chain: MEMEKEFEQIDKSGSWAAIYQDIRHEASDFPCRVAKLPKNKNRNRYRDVSPFDHSRIKLHQEDNDYINASLIKMEEAQRSYILTQGPLPNTCGHFWEMVWEQKSRGVVMLNRVMEKGSLKCAQYWPQKEEKEMIFEDTNLKLTLISEDIKSYYTVRQLELENLTTQETREILHFHYTTWPDFGVPESPAAFLNFLFKVRESGSLSPEHGPVVVHCSAGIGRSGTFCLADTCLLLMDKRKDPSSVDIKKVLLEMRKFRMGLIQTADQLRFSYLAVIEGAKFIMGDSSVQDQWKELSHEDLEP
B4: PTP1BG283P: PTP1B1-301 mutant with point mutation in the α7 helix (protein, UniProt P18031 1-301, looked up, variant G283P)
chain: MEMEKEFEQIDKSGSWAAIYQDIRHEASDFPCRVAKLPKNKNRNRYRDVSPFDHSRIKLHQEDNDYINASLIKMEEAQRSYILTQGPLPNTCGHFWEMVWEQKSRGVVMLNRVMEKGSLKCAQYWPQKEEKEMIFEDTNLKLTLISEDIKSYYTVRQLELENLTTQETREILHFHYTTWPDFGVPESPASFLNFLFKVRESGSLSPEHGPVVVHCSAGIGRSGTFCLADTCLLLMDKRKDPSSVDIKKVLLEMRKFRMGLIQTADQLRFSYLAVIEGAKFIMPDSSVQDQWKELSHEDLEP
B5: PTP1BL195A: PTP1B1-301 mutant with mutation in the α3 helix (protein, UniProt P18031 1-301, looked up, variant L195A)
chain: MEMEKEFEQIDKSGSWAAIYQDIRHEASDFPCRVAKLPKNKNRNRYRDVSPFDHSRIKLHQEDNDYINASLIKMEEAQRSYILTQGPLPNTCGHFWEMVWEQKSRGVVMLNRVMEKGSLKCAQYWPQKEEKEMIFEDTNLKLTLISEDIKSYYTVRQLELENLTTQETREILHFHYTTWPDFGVPESPASFLNFAFKVRESGSLSPEHGPVVVHCSAGIGRSGTFCLADTCLLLMDKRKDPSSVDIKKVLLEMRKFRMGLIQTADQLRFSYLAVIEGAKFIMGDSSVQDQWKELSHEDLEP
B6: PTP1BL294A: PTP1B1-301 mutant with point mutation in the α7 helix (protein, UniProt P18031 1-301, looked up, variant L294A)
chain: MEMEKEFEQIDKSGSWAAIYQDIRHEASDFPCRVAKLPKNKNRNRYRDVSPFDHSRIKLHQEDNDYINASLIKMEEAQRSYILTQGPLPNTCGHFWEMVWEQKSRGVVMLNRVMEKGSLKCAQYWPQKEEKEMIFEDTNLKLTLISEDIKSYYTVRQLELENLTTQETREILHFHYTTWPDFGVPESPASFLNFLFKVRESGSLSPEHGPVVVHCSAGIGRSGTFCLADTCLLLMDKRKDPSSVDIKKVLLEMRKFRMGLIQTADQLRFSYLAVIEGAKFIMGDSSVQDQWKEASHEDLEP
B7: PTP1BD298A: PTP1B1-301 mutant with point mutation in the α7 helix (protein, UniProt P18031 1-301, looked up, variant D298A)
chain: MEMEKEFEQIDKSGSWAAIYQDIRHEASDFPCRVAKLPKNKNRNRYRDVSPFDHSRIKLHQEDNDYINASLIKMEEAQRSYILTQGPLPNTCGHFWEMVWEQKSRGVVMLNRVMEKGSLKCAQYWPQKEEKEMIFEDTNLKLTLISEDIKSYYTVRQLELENLTTQETREILHFHYTTWPDFGVPESPASFLNFLFKVRESGSLSPEHGPVVVHCSAGIGRSGTFCLADTCLLLMDKRKDPSSVDIKKVLLEMRKFRMGLIQTADQLRFSYLAVIEGAKFIMGDSSVQDQWKELSHEALEP
B8: PTP1BE297A: PTP1B1-301 mutant with point mutation in the α7 helix (protein, UniProt P18031 1-301, looked up, variant E297A)
chain: MEMEKEFEQIDKSGSWAAIYQDIRHEASDFPCRVAKLPKNKNRNRYRDVSPFDHSRIKLHQEDNDYINASLIKMEEAQRSYILTQGPLPNTCGHFWEMVWEQKSRGVVMLNRVMEKGSLKCAQYWPQKEEKEMIFEDTNLKLTLISEDIKSYYTVRQLELENLTTQETREILHFHYTTWPDFGVPESPASFLNFLFKVRESGSLSPEHGPVVVHCSAGIGRSGTFCLADTCLLLMDKRKDPSSVDIKKVLLEMRKFRMGLIQTADQLRFSYLAVIEGAKFIMGDSSVQDQWKELSHADLEP
B9: PTP1BF194A: PTP1B1-301 mutant with mutation in the α3 helix (protein, UniProt P18031 1-301, looked up, fragment F194A)
chain: MEMEKEFEQIDKSGSWAAIYQDIRHEASDFPCRVAKLPKNKNRNRYRDVSPFDHSRIKLHQEDNDYINASLIKMEEAQRSYILTQGPLPNTCGHFWEMVWEQKSRGVVMLNRVMEKGSLKCAQYWPQKEEKEMIFEDTNLKLTLISEDIKSYYTVRQLELENLTTQETREILHFHYTTWPDFGVPESPASFLNALFKVRESGSLSPEHGPVVVHCSAGIGRSGTFCLADTCLLLMDKRKDPSSVDIKKVLLEMRKFRMGLIQTADQLRFSYLAVIEGAKFIMGDSSVQDQWKELSHEDLEP
B10: PTP1BF196A: PTP1B1-301 mutant with mutation in the α3 helix (protein, UniProt P18031 1-301, looked up, variant F196A)
chain: MEMEKEFEQIDKSGSWAAIYQDIRHEASDFPCRVAKLPKNKNRNRYRDVSPFDHSRIKLHQEDNDYINASLIKMEEAQRSYILTQGPLPNTCGHFWEMVWEQKSRGVVMLNRVMEKGSLKCAQYWPQKEEKEMIFEDTNLKLTLISEDIKSYYTVRQLELENLTTQETREILHFHYTTWPDFGVPESPASFLNFLAKVRESGSLSPEHGPVVVHCSAGIGRSGTFCLADTCLLLMDKRKDPSSVDIKKVLLEMRKFRMGLIQTADQLRFSYLAVIEGAKFIMGDSSVQDQWKELSHEDLEP
B11: PTP1BY152F: PTP1B1-301 mutant with mutation in the L11 loop (protein, UniProt P18031 1-301, looked up, variant Y152F)
chain: MEMEKEFEQIDKSGSWAAIYQDIRHEASDFPCRVAKLPKNKNRNRYRDVSPFDHSRIKLHQEDNDYINASLIKMEEAQRSYILTQGPLPNTCGHFWEMVWEQKSRGVVMLNRVMEKGSLKCAQYWPQKEEKEMIFEDTNLKLTLISEDIKSFYTVRQLELENLTTQETREILHFHYTTWPDFGVPESPASFLNFLFKVRESGSLSPEHGPVVVHCSAGIGRSGTFCLADTCLLLMDKRKDPSSVDIKKVLLEMRKFRMGLIQTADQLRFSYLAVIEGAKFIMGDSSVQDQWKELSHEDLEP

The test system of one data set is PTP1B. Kind of data set: Phosphatase activity of PTP1B constructs against pNPP (enzyme assay). The class given is biochemical, human. As to conditions: pNPP substrate, pH 7.5, 0.015 μM PTP1B (FIG. 27, 32A, 32B). How it is done: Phosphatase activity of PTP1B against the general PTP/DUSP substrate, p-nitrophenyl phosphate (pNPP), was tested in 50 mM HEPES pH 7.5, 150 mM NaCl, 0.5 mM TCEP. 40 μl of enzyme at a 1.5 μM concentration was added to 60 μl of pNPP substrate resuspended in the reaction buffer. See, FIG. 25. The final concentrations of pNPP used in this experiment were […]. The enzyme was incubated with the substrate at 30° C. for 30 min, after which 100 μl of 1 M NaOH was added to a final concentration of 0.5 M NaOH to quench the reaction. Absorbance was measured at 405 nm and the final concentration of p-nitrophenol (pNP) was calculated using the molar extinction coefficient of 18000 M-1 cm-1. A control reaction in which substrate was incubated in the absence of enzyme was subtracted from all other experimental values. All experiments were performed in triplicate.
Enzyme assays were performed at pH 7.5 with 0.15 μM PTP1B to compare the activities of wild-type PTP1B1-301 to mutants with mutations in the L11 loop: PTP1BY152A/F, PTP1BY153A/F, and PTP1BYAYA. See, FIG. 17. […] Ibid. […] Ibid. […] Ibid. […] Ibid. […] Ibid. […] Ibid.
Enzyme assays were performed at pH 7.5 with 0.015 μM PTP1B to compare the activities of wild-type PTP1B1-301 to mutants with mutations in the α3 helix such as PTP1BN193A. See, FIG. 27. […] Ibid. […] Ibid. […] Ibid. […] Ibid. […] Ibid. […] Ibid.
An enzyme assay was used to compare the activity of wild-type PTP1B1-301 to the activity of PTP1B1-284 P185G. See, FIG. 15. Enzyme assays were performed at pH 7.5 with 0.015 μM PTP1B to compare the activities of wild-type PTP1B1-301 to mutants with mutations in the α7 helix. See, FIG. 32A. In one embodiment, these point mutations were made in an amino acid sequence substantially similar to SEQ ID NO: 2.
As a reminder, the Km is the substrate concentration at which the rate is half of its maximum. For orientation: kcat means the maximal rate divided by the concentration of active sites. As for B1, the Km amounted to 620 ± 70 µM and the catalytic constant (kcat) came to 6.0 ± 0.2 s⁻¹.
The matching figures for B2: 380 ± 50 µM and 6.1 ± 0.3 s⁻¹.
The matching figures for B3: 370 ± 50 µM and 6.1 ± 0.3 s⁻¹.
In the same order, the values of B4 are 850 ± 70 µM and 4.9 ± 0.2 s⁻¹.
As to B5, the Km amounted to 290 ± 30 µM and the kcat came out at 4.1 ± 0.1 s⁻¹.
The matching figures for B6: 730 ± 50 µM and 5.1 ± 0.1 s⁻¹.
The matching figures for B7: 480 ± 100 µM and 6.3 ± 0.4 s⁻¹.
For B8, the Km amounted to 720 ± 120 µM and the kcat was found to be 4.6 ± 0.3 s⁻¹.
In the case of B9, the Km came out at 390 ± 50 µM and the kcat was 5.3 ± 0.3 s⁻¹.
The matching figures for B10: 320 ± 40 µM and 4.2 ± 0.2 s⁻¹.

The data set is the same for the next values; noted with them: pNPP substrate, pH 7.5, 0.15 μM PTP1B (FIG. 17).
B1: the Km amounted to 900 ± 80 µM and the catalytic constant (kcat) came out at 3.4 ± 0.3 s⁻¹.
The matching figures for B11: 950 ± 40 µM and 3.4 ± 0.1 s⁻¹.
